B1: 103.2 mAb (antibody, V domains shown)
VH: QVQLQQSGAEVVRPGTSVKVSCKASGYAFTSYLIHWIKQRPGQGLEWIGVINPRSGDSHYNEKFKDRTTLTADQSSSTAYMQLSSLTSDDSAVYFCARSDYGAYWGQGTLVTVSA
VL: DIVLTQSPVTLSVTPGDSVSLSCRASQSISNNLHWYRQKSHESPRLLIKYASQSIFGIPSRFSGSGSGTEFTLSINSVETEDFGIYFCQQSNSWPHTFGTGTKLELK
B2: 103.2^5 mAb hinge variant (antibody, V domains shown)
VH: B1 VH
VL: B1 VL
B3: 103.2^10 mAb hinge variant (antibody, V domains shown)
VH: B1 VH
VL: B1 VL
B4: 103.2^15 mAb hinge variant (antibody, V domains shown)
VH: B1 VH
VL: B1 VL
B5: 103.2^30 mAb hinge variant (antibody, V domains shown)
VH: B1 VH
VL: B1 VL

Molecular target: Biotinylated BTN3A1 ectodomain + avitag (Homo sapiens, UniProt O00481, biotin on the C-terminal BirA biotinylation sequence)
Sequence (O00481 whole entry, looked up, the tested form may be a part): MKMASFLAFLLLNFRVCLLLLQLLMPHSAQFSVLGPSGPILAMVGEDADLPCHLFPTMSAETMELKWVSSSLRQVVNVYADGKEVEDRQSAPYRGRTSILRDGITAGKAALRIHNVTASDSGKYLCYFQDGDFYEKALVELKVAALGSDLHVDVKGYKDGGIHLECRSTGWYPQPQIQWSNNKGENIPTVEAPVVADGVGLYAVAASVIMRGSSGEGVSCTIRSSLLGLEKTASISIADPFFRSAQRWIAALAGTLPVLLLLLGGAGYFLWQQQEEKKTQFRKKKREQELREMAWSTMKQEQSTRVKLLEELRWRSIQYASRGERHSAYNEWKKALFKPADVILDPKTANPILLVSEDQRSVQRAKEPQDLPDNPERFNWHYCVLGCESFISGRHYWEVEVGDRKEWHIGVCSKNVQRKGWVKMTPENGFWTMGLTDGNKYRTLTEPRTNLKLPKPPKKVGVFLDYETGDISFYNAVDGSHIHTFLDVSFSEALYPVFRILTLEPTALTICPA
Experiment: BLI

Binder | binding result
B1 | binds
B2 | binds
B3 | binds
B4 | binds
B5 | binds

From PMC11982570 (Scientific Reports, 2025)
